Consider 125 sequences from the supplement of paper PMC9112550, “Optimization of the antimicrobial peptide Bac7 by deep mutational scanning” (BMC Biology, 2022).

This series concerns Escherichia coli TOP10. Put plainly: shrunken log2 fold change of peptide-encoding DNA abundance (4.5 h post-induction vs induction); higher = less antimicrobial activity (less host growth inhibition). As to conditions: time post-induction: 4.5 h; library: site-saturation at positions 5, 18, 19, 20.
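Note: peptides expressed intracellularly from a pBAD plasmid library in pooled LB shake-flask culture, induced with 0.3% L-arabinose, DNA abundance read by NGS, three biological replicates, DESeq2 with apeglm shrinkage.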

With RRIRVRPPRLPRPRPRPPNGPRP, the “shrunken log2 fold change” value is 0.0958.
Then RRIRCRPPRLPRPRPRPYVKPRP, with -0.647.
Under RRIRVRPPRLPRPRPRPPKQPRP stands 0.0106; under RRIRVRPPRLPRPRPRPIHNPRP, -0.554.
Then RRIRTRPPRLPRPRPRPTHSPRP, with 0.384.
In the case of RRIRSRPPRLPRPRPRPLPVPRP, the “shrunken log2 fold change” value was 0.0687.
Under RRIRARPPRLPRPRPRPMCTPRP stands -0.0696; under RRIRCRPPRLPRPRPRPLIRPRP, -0.109.
Under RRIRCRPPRLPRPRPRPWYDPRP stands -0.0194.
Then RRIRNRPPRLPRPRPRPRVDPRP, with 0.0415.
Turning to RRIRFRPPRLPRPRPRPEKQPRP, the “shrunken log2 fold change” value was -0.0262.
Then RRIRDRPPRLPRPRPRPTCCPRP, with 0.104; and RRIRPRPPRLPRPRPRPNTTPRP, with -0.131.
As for RRIRMRPPRLPRPRPRPNARPRP, the “shrunken log2 fold change” value was 0.323.
Under RRIRKRPPRLPRPRPRPTWQPRP stands 0.58; under RRIRERPPRLPRPRPRPNNEPRP, -0.525.
Under RRIRRRPPRLPRPRPRPGIPPRP stands 0.322.
Under RRIRIRPPRLPRPRPRPRMCPRP stands 0.242; under RRIRCRPPRLPRPRPRPLYHPRP, -0.695; under RRIRTRPPRLPRPRPRPNFKPRP, -0.131.
For RRIRVRPPRLPRPRPRPTYCPRP, the “shrunken log2 fold change” value was -0.327.
Under RRIRGRPPRLPRPRPRPAGTPRP stands 0.752; under RRIRMRPPRLPRPRPRPQHYPRP, -0.116; under RRIRWRPPRLPRPRPRPLDIPRP, 1.52.
Under RRIRARPPRLPRPRPRPCRPPRP stands -0.153; under RRIRIRPPRLPRPRPRPFGFPRP, -0.694.
Under RRIRGRPPRLPRPRPRPWRRPRP stands 0.054; under RRIRSRPPRLPRPRPRPWDDPRP, -0.0242; under RRIRRRPPRLPRPRPRPRPHPRP, 1.6.
For the sequence RRIRMRPPRLPRPRPRPFIWPRP, the “shrunken log2 fold change” value came to 0.0163.
Under RRIRERPPRLPRPRPRPRAEPRP stands -0.116; under RRIRMRPPRLPRPRPRPNRMPRP, -0.189.
Then RRIRWRPPRLPRPRPRPDTKPRP, with 0.00587; and RRIRWRPPRLPRPRPRPMFYPRP, with -0.395; and RRIRCRPPRLPRPRPRPRQSPRP, with 0.139.
Turning to RRIRWRPPRLPRPRPRPWFNPRP, the “shrunken log2 fold change” value was -0.248.
As for RRIRMRPPRLPRPRPRPPLFPRP, the “shrunken log2 fold change” value is 0.919.
Then RRIRERPPRLPRPRPRPCKQPRP, with -0.086; and RRIRFRPPRLPRPRPRPPLGPRP, with 1.33; and RRIRRRPPRLPRPRPRPVVPPRP, with 0.47.
Then RRIRNRPPRLPRPRPRPEICPRP, with 0.0654; and RRIRKRPPRLPRPRPRPVGGPRP, with 0.544.
Under RRIRKRPPRLPRPRPRPHCVPRP stands -0.0287; under RRIRWRPPRLPRPRPRPIFGPRP, 0.0623.
For the sequence RRIRVRPPRLPRPRPRPYHHPRP, the “shrunken log2 fold change” value is -0.0938.
Under RRIRMRPPRLPRPRPRPECCPRP stands 3.54; under RRIRDRPPRLPRPRPRPDISPRP, 0.0588.
As to RRIRPRPPRLPRPRPRPNNIPRP, the “shrunken log2 fold change” value was -0.848.
Under RRIRRRPPRLPRPRPRPMDAPRP stands 0.161.
In the case of RRIRFRPPRLPRPRPRPNHRPRP, the “shrunken log2 fold change” value was -0.306.
On to RRIRMRPPRLPRPRPRPCGFPRP, for which the “shrunken log2 fold change” value was 0.0233.
Under RRIRTRPPRLPRPRPRPVMHPRP stands 0.102; under RRIRNRPPRLPRPRPRPIVPPRP, -0.382; under RRIRHRPPRLPRPRPRPILVPRP, -0.148.
As for RRIRHRPPRLPRPRPRPDSIPRP, the “shrunken log2 fold change” value is -0.0212.
Then RRIRYRPPRLPRPRPRPINYPRP, with -1.12; and RRIRNRPPRLPRPRPRPQDIPRP, with -0.252; and RRIRNRPPRLPRPRPRPLATPRP, with 0.292.
Then RRIRQRPPRLPRPRPRPLHWPRP, with 0.0127; and RRIRTRPPRLPRPRPRPCFVPRP, with -0.454.
Then RRIRYRPPRLPRPRPRPSYEPRP, with -0.629.
Take RRIRARPPRLPRPRPRPLCPPRP: the “shrunken log2 fold change” value turned out to be 0.0472.
Then RRIRERPPRLPRPRPRPSVNPRP, with -0.959; and RRIRQRPPRLPRPRPRPSYYPRP, with -0.356.
Under RRIRQRPPRLPRPRPRPVNTPRP stands -0.0633; under RRIRTRPPRLPRPRPRPQISPRP, -0.024; under RRIRWRPPRLPRPRPRPYRCPRP, 0.0623.
Then RRIRSRPPRLPRPRPRPWFIPRP, with -0.311; and RRIRFRPPRLPRPRPRPIYRPRP, with -0.122.
As for RRIRPRPPRLPRPRPRPGMWPRP, the “shrunken log2 fold change” value stood at 0.303.
Then RRIRARPPRLPRPRPRPCYNPRP, with -0.456; and RRIRWRPPRLPRPRPRPTYLPRP, with 0.0592; and RRIRGRPPRLPRPRPRPKQQPRP, with 0.228.
Then RRIRVRPPRLPRPRPRPSKLPRP, with -0.797; and RRIRPRPPRLPRPRPRPESKPRP, with 0.224; and RRIRQRPPRLPRPRPRPGDSPRP, with -0.0573.
Under RRIRVRPPRLPRPRPRPIPCPRP stands -0.0881; under RRIRARPPRLPRPRPRPIFYPRP, -0.0773; under RRIRTRPPRLPRPRPRPKNMPRP, -0.359.
As for RRIRHRPPRLPRPRPRPTGEPRP, the “shrunken log2 fold change” value is -0.0103.
As to RRIRIRPPRLPRPRPRPYISPRP, the “shrunken log2 fold change” value is -0.0173.
Under RRIRSRPPRLPRPRPRPCGWPRP stands 0.148.
Then RRIRARPPRLPRPRPRPSIYPRP, with -0.404; and RRIRSRPPRLPRPRPRPQHGPRP, with -0.397.
Then RRIRLRPPRLPRPRPRPGYEPRP, with -0.11; and RRIRYRPPRLPRPRPRPQVKPRP, with -0.318.
With RRIRNRPPRLPRPRPRPMTNPRP, the “shrunken log2 fold change” value was found to be 0.454.
Then RRIRDRPPRLPRPRPRPDNGPRP, with -0.223; and RRIRFRPPRLPRPRPRPKVRPRP, with -0.022.
RRIRYRPPRLPRPRPRPEQLPRP: the “shrunken log2 fold change” value is -0.0122.
Under RRIRSRPPRLPRPRPRPEMHPRP stands 0.0756; under RRIRDRPPRLPRPRPRPYNAPRP, -0.0556; under RRIRERPPRLPRPRPRPHQLPRP, 0.0377.
Then RRIRERPPRLPRPRPRPACQPRP, with 0.146; and RRIRVRPPRLPRPRPRPNVVPRP, with -0.109; and RRIRTRPPRLPRPRPRPRVAPRP, with 0.258.
Consider RRIRQRPPRLPRPRPRPTESPRP, for which the “shrunken log2 fold change” value worked out at 0.105.
Under RRIRRRPPRLPRPRPRPPTVPRP stands 0.24.
Under RRIRARPPRLPRPRPRPQVVPRP stands -0.0726.
As to RRIRTRPPRLPRPRPRPDRTPRP, the “shrunken log2 fold change” value was -0.442.
On to RRIRVRPPRLPRPRPRPWEPPRP, for which the “shrunken log2 fold change” value was found to be 0.13.
Under RRIRVRPPRLPRPRPRPQQSPRP stands -0.0738.
In the case of RRIRGRPPRLPRPRPRPACQPRP, the “shrunken log2 fold change” value amounted to 0.883.
Then RRIRERPPRLPRPRPRPSMHPRP, with -0.451; and RRIRLRPPRLPRPRPRPHVLPRP, with -0.0737; and RRIRGRPPRLPRPRPRPNIYPRP, with -0.13.
As for RRIRYRPPRLPRPRPRPTISPRP, the “shrunken log2 fold change” value was -0.893.
Then RRIRQRPPRLPRPRPRPSNFPRP, with -0.621; and RRIRMRPPRLPRPRPRPNPLPRP, with 0.567; and RRIRDRPPRLPRPRPRPYSAPRP, with -0.0545.
Then RRIRYRPPRLPRPRPRPWPWPRP, with 0.0314; and RRIRWRPPRLPRPRPRPPEDPRP, with 0.235; and RRIRLRPPRLPRPRPRPCHTPRP, with -0.173.
Then RRIRCRPPRLPRPRPRPDHAPRP, with -0.0323; and RRIRYRPPRLPRPRPRPHMCPRP, with -0.0704; and RRIRYRPPRLPRPRPRPRHPPRP, with -0.266.
On to RRIRGRPPRLPRPRPRPWPQPRP, for which the “shrunken log2 fold change” value stood at 0.498.
Under RRIRKRPPRLPRPRPRPKRHPRP stands 0.255.
Under RRIRGRPPRLPRPRPRPHNPPRP stands -0.0429; under RRIRTRPPRLPRPRPRPVSNPRP, -0.442; under RRIRERPPRLPRPRPRPFSCPRP, 0.0263.
Turning to RRIRTRPPRLPRPRPRPRREPRP, the “shrunken log2 fold change” value came to 0.351.
Then RRIRSRPPRLPRPRPRPFGDPRP, with -0.0872.
Under RRIRKRPPRLPRPRPRPSNWPRP stands -0.00865; under RRIRIRPPRLPRPRPRPMFTPRP, -0.212.
